The assay concerns the target yeast Mediator (yMED), core, devoid of the CKM (yeast (endogenous in strain BJ2168)) (UniProt P38782). Kind of assay: single-particle EM.

With “recombinant GST-labeled CTD of RNAPII (from UniProt P04050 1-1733) (domain or fragment)”, the fraction of single yMED images with GST-CTD density is 10%.
